From patent EP4683932A2

Target: Pak2 kinase (UniProt Q13177)
Assay: cell-based or functional assay

Chain of UniProt Q13177 (Q13177 2-524 limits assumed): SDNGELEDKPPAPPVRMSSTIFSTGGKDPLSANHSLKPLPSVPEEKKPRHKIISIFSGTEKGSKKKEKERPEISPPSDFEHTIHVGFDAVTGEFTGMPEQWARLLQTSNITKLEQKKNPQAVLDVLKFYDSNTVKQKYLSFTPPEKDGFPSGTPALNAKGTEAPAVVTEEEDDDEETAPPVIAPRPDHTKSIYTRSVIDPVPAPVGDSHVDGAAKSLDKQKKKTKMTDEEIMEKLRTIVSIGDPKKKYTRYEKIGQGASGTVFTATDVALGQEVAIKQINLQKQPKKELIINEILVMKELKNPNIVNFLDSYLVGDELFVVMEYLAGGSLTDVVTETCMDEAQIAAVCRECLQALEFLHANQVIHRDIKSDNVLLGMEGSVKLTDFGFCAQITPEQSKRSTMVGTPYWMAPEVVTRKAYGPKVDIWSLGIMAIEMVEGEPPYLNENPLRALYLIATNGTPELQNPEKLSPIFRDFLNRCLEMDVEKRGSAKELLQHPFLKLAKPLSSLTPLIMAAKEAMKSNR

Substance: HIV-1 Nef protein, wild type (Nef from HIV-1 Clade B)
- phosphorylation of the Pak2 kinase at S55, quantitative phosphoproteomics of NALM6-stimulated CAR T cells, Nef-WT compared to NefAxxA: 2.15 log2Fc
- phosphorylation of the Pak2 kinase at S152, quantitative phosphoproteomics of NALM6-stimulated CAR T cells, Nef-WT compared to NefAxxA: 1.17 log2Fc
